Data set [1] in a line: Conversion of syringic acid, sinapic acid and syringol by crude PPOs, absorbance at 400 nm. In kind it is biochemical. Particulars: 4 mM substrate, crude PPO 8.2 μg/mL, pH 6.0 or 7.0, 50 μM CuSO4, room temperature, 2, 22 and 118 h. Here is the method: Syringic acid, sinapic acid and syringol (4 mM) were incubated with crude PPO2, 4, 6 and 7 from Example 5 in 100 mM BisTris buffer pH 6.0 or 7.0 with 50 μM CuSO4. Crude PPOs were dosed on target protein with a final concentration of 8.2 μg/mL. Substrate blanks prepared without the addition of enzyme and enzyme blanks without the addition of substrate were included. Incubations were performed in microtiterplates with a total reaction volume of 150 μL at room temperature for approximately 120 h. After 2, 22 and 118 h absorbance at 400 nm was measured.

Data set [2] in a line: Catechol oxidase activity assay: initial rate of 3-methoxycatechol oxidation at 400 nm (pH, copper and temperature optima). It counts as biochemical. On the procedure:
PPO activity was determined by measuring the initial rate of 3-methoxycatechol oxidation at 400 nm (extinction coefficient used: ε 1200 M^−1cm^−1). One unit of activity is defined as the amount of PPO activity that oxidizes 1 μmol of 3-methoxycatechol to quinone per minute. Substrate was used at a concentration of 4 mM.
The pH optima were determined by measuring the initial rate of 3-methoxycatechol oxidation with varying pHs, at room temperature and using a CuSO4 concentration of 10 μM. The pH was varied in the range of pH3-9 using Carmody buffers. Enzyme loading was applied resulting in A400 absorbance values in the range of 0.1-1. Protein concentration was determined using the BCA method.
Optimal copper concentrations for the PPOs were determined at the optimal pH by varying the concentration of CuSO4 in the range of 1-1000 μM. In these experiments the pH was controlled using 50 mM Bis-Tris buffer pH 7.0.
Temperature optima were determined by measuring A400 absorbance after 1 h incubation at temperatures in the range of 20 to 70° C. In these experiments the pH was controlled using 50 mM Bis-Tris buffer pH 7.0. Copper concentrations of (20 or 50 μM) were used to prevent chemical oxidation as background activity at higher copper concentrations.

B1: PPO4: Myceliophthora thermophila C1 polyphenoloxidase with demethylating activity, mature form SEQ ID NO: 37 (protein, listed as Myceliophthora thermophila)
chain: DAVLDLQEKGRPAIDAQLAKSTTCTKEKLQVRREWGDISAEEKKAYIAAMLCIMEKPSRLDPNQFPGAKSRYDDFVVVHMNQTLSIHGTGNFLSWHRYYTWVFERALQEECGYNGTQPYWDWGRWADDPENSPIFDGSDTSLSGNGEYIEHRASGFIPAGNGGGCVKSGPFKDMVVHLGPVAPAIDPAPPANPRRDGYGDNPRCLRRDISNQLSSKYARTQDIVDLITTSADIGTFQTVMQGAGGFGVGPGGMGVHAAGHFTIAGDPGGDFYTSPNDPAFWVHHGMIDRTWTIWQSQDLDNRLQVIAGGSSMMGGPPQTLDDPVDLGVVADKVYPIRDLVSVVDGPFCYVYE
Regarding B1, the “Conversion of substrates (absorbance at 400 nm)” value in data set [1] is listed as “only able to use syringic acid as a substrate”. This molecule displayed a pHopt in data set [2] (3-methoxycatechol oxidation, room temperature, 10 μM CuSO4, Carmody buffers pH3-9) of 7.0. Further, in data set [2] (>50% of maximum activity), the T range was 30-60 °C and the pH range is 5.0-7.5. The “[CuSO4] range” value in data set [2] (>90% of maximum activity) was 20 to 1000 µM. In data set [2] (A400 after 1 h incubation, 20 to 70° C., 50 mM Bis-Tris pH 7.0, 20 or 50 μM copper), this molecule showed a Topt of 55 °C. Moreover, the “[CuSO4]opt” value in data set [2] (at optimal pH, 50 mM Bis-Tris buffer pH 7.0, CuSO4 varied 1-1000 μM) came out at 200 µM.

The record behind these values is patent publication US20190002846A1, “POLYPEPTIDES HAVING DEMETHYLATING ACTIVITY” (Genencor International B.V., priority 2015, published 2019).
